Source: paper PMC6689074, “In vivo Hox binding specificity revealed by systematic changes to a single cis regulatory module”

Tests used:
[1] = molecular target: T1, Ultrabithorax isoform IVa (UbxIVa);Extradenticle (Exd);Homothorax HM domain (HthHM) (Drosophila melanogaster?;Drosophila …, UniProt P83949-5;P40427;O46339 1-346;1-376;1-211, ||); assay: EMSA; increased with high-affinity overlapping site; EMSA: 6 nM 32P dsDNA probe, 200 nM Exd-HM, 30-180 nM Hox; 4% polyacrylamide gel, 120 V, 2.5 h, 4 C; buffer, salt and pH not given in material; conditions: protein: recombinant;recombinant;recombinant; tags: His (pET21b);none (pET9a);His (pET21b); copies: 1;1;1; label: 32P
[2] = molecular target: T1, Ultrabithorax isoform IVa …; assay: EMSA; strong binding; EMSA: 6 nM 32P dsDNA probe, 200 nM Exd-HM, 30-180 nM Hox; 4% polyacrylamide gel, 120 V, 2.5 h, 4 C; buffer, salt and pH not given in material; conditions: protein: recombinant;recombinant;recombinant; tags: His (pET21b);none (pET9a);His (pET21b); copies: 1;1;1; label: 32P

T1 sequence (P83949 other isoform, or with tags, fused parts or gaps ||, chain 1 of 3): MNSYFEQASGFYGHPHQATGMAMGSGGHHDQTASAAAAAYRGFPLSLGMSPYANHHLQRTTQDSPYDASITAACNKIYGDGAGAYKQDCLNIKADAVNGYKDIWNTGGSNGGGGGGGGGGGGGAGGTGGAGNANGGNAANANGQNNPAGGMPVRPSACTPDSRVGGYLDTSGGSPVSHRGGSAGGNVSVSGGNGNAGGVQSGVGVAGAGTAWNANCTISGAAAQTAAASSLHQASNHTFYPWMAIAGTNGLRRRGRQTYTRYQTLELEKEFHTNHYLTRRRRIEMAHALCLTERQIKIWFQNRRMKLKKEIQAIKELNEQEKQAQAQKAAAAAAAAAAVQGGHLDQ
T1 sequence (P40427 whole entry, chain 2 of 3, the tested form may be a part, canonical isoform): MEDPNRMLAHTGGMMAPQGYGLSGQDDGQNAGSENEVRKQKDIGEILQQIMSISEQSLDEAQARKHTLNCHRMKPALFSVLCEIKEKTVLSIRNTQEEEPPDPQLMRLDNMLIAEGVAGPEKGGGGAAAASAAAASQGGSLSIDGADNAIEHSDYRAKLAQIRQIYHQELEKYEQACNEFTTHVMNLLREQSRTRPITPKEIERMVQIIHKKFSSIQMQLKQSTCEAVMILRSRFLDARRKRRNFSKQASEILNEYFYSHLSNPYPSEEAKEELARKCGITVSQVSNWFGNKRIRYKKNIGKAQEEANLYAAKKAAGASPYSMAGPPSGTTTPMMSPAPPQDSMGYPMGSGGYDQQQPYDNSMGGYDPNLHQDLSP
T1 sequence (O46339 1-211, chain 3 of 3): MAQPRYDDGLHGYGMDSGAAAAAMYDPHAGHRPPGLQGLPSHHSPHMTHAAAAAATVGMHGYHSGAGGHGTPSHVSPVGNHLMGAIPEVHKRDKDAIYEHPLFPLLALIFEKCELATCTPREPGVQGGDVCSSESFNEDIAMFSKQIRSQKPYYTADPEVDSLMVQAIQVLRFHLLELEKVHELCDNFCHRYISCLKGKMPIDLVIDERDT

Binder | binding result [1] | binding result [2]
main class 1 + overlapping high-affinity class 3 oligo (dsDNA) DNA 1: ACGGGATTTGATTGATTTATTAGAATTCGGCGACGAACGAAAGC DNA 2: GCTTTCGTTCGTCGCCGAATTCTAATAAATCAATCAAATCCCGT | binds | –
mutant main + high-affinity overlapping class 3 oligo (dsDNA) DNA 1: ACGGGATACGATTGATTTATTAGAATTCGGCGACGAACGAAAGC DNA 2: GCTTTCGTTCGTCGCCGAATTCTAATAAATCAATCGTATCCCGT | – | binds
